According to IntAct's records for PubMed 31515488:

B1: Protein LDOC1 (Homo sapiens), O95751 (parent)
chain: MVDELVLLLHALLMRHRALSIENSQLMEQLRLLVCERASLLRQVRPPSCPVPFPETFNGESSRLPEFIVQTASYMLVNENRFCNDAMKVAFLISLLTGEAEEWVVPYIEMDSPILGDYRAFLDEMKQCFGWDDDEDDDDEEEEDDY
B2: WW domain-containing adapter protein with coiled-coil (Homo sapiens), Q9BTA9-1 (parent)
chain: MVMYARKQQRLSDGCHDRRGDSQPYQALKYSSKSHPSSGDHRHEKMRDAGDPSPPNKMLRRSDSPENKYSDSTGHSKAKNVHTHRVRERDGGTSYSPQENSHNHSALHSSNSHSSNPSNNPSKTSDAPYDSADDWSEHISSSGKKYYYNCRTEVSQWEKPKEWLEREQRQKEANKMAVNSFPKDRDYRREVMQATATSGFASGMEDKHSSDASSLLPQNILSQTSRHNDRDYRLPRAETHSSSTPVQHPIKPVVHPTATPSTVPSSPFTLQSDHQPKKSFDANGASTLSKLPTPTSSVPAQKTERKESTSGDKPVSHSCTTPSTSSASGLNPTSAPPTSASAVPVSPVPQSPIPPLLQDPNLLRQLLPALQATLQLNNSNVDISKINEVLTAAVTQASLQSIIHKFLTAGPSAFNITSLISQAAQLSTQAQPSNQSPMSLTSDASSPRSYVSPRISTPQTNTVPIKPLISTPPVSSQPKVSTPVVKQGPVSQSATQQPVTADKQQGHEPVSPRSLQRSSSQRSPSPGPNHTSNSSNASNATVVPQNSSARSTCSLTPALAAHFSENLIKHVQGWPADHAEKQASRLREEAHNMGTIHMSEICTELKNLRSLVRVCEIQATLREQRILFLRQQIKELEKLKNQNSFMV
B3: SKA complex subunit 1 (Homo sapiens), Q96BD8 (parent)
chain: MASSDLEQLCSHVNEKIGNIKKTLSLRNCGQEPTLKTVLNKIGDEIIVINELLNKLELEIQYQEQTNNSLKELCESLEEDYKDIEHLKENVPSHLPQVTVTQSCVKGSDLDPEEPIKVEEPEPVKKPPKEQRSIKEMPFITCDEFNGVPSYMKSRLTYNQINDVIKEINKAVISKYKILHQPKKSMNSVTRNLYHRFIDEETKDTKGRYFIVEADIKEFTTLKADKKFHVLLNILRHCRRLSEVRGGGLTRYVIT
partner: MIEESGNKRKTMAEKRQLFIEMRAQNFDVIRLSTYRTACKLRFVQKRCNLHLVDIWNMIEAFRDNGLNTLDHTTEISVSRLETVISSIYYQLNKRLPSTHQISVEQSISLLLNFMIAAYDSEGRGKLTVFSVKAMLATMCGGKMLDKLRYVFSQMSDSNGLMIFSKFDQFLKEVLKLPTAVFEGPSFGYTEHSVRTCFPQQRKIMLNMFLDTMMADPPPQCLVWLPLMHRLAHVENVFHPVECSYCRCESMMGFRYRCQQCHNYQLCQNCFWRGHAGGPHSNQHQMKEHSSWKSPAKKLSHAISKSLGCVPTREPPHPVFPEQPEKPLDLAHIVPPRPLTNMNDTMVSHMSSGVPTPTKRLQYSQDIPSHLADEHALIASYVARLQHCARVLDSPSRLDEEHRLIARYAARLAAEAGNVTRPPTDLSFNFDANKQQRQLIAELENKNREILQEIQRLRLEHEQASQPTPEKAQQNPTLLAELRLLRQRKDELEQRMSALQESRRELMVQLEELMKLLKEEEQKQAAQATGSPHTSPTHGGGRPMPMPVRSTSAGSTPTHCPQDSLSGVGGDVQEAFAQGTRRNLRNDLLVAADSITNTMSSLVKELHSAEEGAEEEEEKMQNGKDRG
B4: Peroxisomal bifunctional enzyme (Homo sapiens), Q08426 (parent)
chain: MAEYTRLHNALALIRLRNPPVNAISTTLLRDIKEGLQKAVIDHTIKAIVICGAEGKFSAGADIRGFSAPRTFGLTLGHVVDEIQRNEKPVVAAIQGMAFGGGLELALGCHYRIAHAEAQVGLPEVTLGLLPGARGTQLLPRLTGVPAALDLITSGRRILADEALKLGILDKVVNSDPVEEAIRFAQRVSDQPLESRRLCNKPIQSLPNMDSIFSEALLKMRRQHPGCLAQEACVRAVQAAVQYPYEVGIKKEEELFLYLLQSGQARALQYAFFAERKANKWSTPSGASWKTASARPVSSVGVVGLGTMGRGIVISFARARIPVIAVDSDKNQLATANKMITSVLEKEASKMQQSGHPWSGPKPRLTSSVKELGGVDLVIEAVFEEMSLKKQVFAELSAVCKPEAFLCTNTSALDVDEIASSTDRPHLVIGTHFFSPAHVMKLLEVIPSQYSSPTTIATVMNLSKKIKKIGVVVGNCFGFVGNRMLNPYYNQAYFLLEEGSKPEEVDQVLEEFGFKMGPFRVSDLAGLDVGWKSRKGQGLTGPTLLPGTPARKRGNRRYCPIPDVLCELGRFGQKTGKGWYQYDKPLGRIHKPDPWLSKFLSRYRKTHHIEPRTISQDEILERCLYSLINEAFRILGEGIAASPEHIDVVYLHGYGWPRHKGGPMFYASTVGLPTVLEKLQKYYRQNPDIPQLEPSDYLKKLASQGNPPLKEWQSLAGSPSSKL
partner: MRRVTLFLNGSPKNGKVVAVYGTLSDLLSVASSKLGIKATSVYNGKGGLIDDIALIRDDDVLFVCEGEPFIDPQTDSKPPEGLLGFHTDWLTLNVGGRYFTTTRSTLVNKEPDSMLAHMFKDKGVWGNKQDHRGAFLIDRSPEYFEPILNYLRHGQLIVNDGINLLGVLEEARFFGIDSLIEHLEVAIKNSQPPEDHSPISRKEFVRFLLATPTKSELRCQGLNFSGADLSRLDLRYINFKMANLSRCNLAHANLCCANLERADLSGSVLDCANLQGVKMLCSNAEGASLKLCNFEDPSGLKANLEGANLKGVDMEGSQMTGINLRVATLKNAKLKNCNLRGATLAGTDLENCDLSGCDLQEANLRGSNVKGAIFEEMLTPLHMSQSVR

Variants of: B1
Details: with ch033_human C8orf33, Q9H7E9

Question: Which “effect of a mutation on the interaction” value does the source give for L12H here?
Answer: with no effect

Variants of: B1
Details: with KRT15, P19012
Target sequence in this assay (P19012 whole entry): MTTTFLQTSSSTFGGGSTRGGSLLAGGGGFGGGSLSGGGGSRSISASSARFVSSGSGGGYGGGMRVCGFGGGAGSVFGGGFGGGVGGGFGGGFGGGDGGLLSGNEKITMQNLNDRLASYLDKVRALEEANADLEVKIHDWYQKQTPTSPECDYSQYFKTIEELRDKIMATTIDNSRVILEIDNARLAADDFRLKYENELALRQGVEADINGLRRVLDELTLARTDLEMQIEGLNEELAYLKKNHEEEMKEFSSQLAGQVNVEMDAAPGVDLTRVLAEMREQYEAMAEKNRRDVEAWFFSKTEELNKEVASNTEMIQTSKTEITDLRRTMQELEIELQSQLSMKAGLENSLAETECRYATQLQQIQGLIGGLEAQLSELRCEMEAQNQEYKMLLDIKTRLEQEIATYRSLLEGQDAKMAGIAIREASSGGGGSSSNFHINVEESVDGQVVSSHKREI

Question: Which “effect of a mutation on the interaction” value does the source give for L12H here?
Answer: with no effect

Variants of: B1
Details: with atf4_human ATF4, P18848
atf4_human ATF4, P18848, sequence (P18848 whole entry): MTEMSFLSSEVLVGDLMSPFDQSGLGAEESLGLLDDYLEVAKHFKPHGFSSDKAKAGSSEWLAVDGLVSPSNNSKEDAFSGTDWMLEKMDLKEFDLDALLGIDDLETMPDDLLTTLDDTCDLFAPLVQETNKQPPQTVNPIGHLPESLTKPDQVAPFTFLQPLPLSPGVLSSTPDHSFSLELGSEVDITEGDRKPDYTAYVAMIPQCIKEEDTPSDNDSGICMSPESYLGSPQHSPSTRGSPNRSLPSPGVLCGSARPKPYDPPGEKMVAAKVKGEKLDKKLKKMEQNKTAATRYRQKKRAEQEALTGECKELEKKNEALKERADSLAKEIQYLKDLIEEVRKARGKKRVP

Question: How did the “effect of a mutation on the interaction” value turn out when L12H was run?
Answer: with no effect

Variants of: B1
Details: with bard1_human BARD1, Q99728
bard1_human BARD1, Q99728, sequence (Q99728 whole entry): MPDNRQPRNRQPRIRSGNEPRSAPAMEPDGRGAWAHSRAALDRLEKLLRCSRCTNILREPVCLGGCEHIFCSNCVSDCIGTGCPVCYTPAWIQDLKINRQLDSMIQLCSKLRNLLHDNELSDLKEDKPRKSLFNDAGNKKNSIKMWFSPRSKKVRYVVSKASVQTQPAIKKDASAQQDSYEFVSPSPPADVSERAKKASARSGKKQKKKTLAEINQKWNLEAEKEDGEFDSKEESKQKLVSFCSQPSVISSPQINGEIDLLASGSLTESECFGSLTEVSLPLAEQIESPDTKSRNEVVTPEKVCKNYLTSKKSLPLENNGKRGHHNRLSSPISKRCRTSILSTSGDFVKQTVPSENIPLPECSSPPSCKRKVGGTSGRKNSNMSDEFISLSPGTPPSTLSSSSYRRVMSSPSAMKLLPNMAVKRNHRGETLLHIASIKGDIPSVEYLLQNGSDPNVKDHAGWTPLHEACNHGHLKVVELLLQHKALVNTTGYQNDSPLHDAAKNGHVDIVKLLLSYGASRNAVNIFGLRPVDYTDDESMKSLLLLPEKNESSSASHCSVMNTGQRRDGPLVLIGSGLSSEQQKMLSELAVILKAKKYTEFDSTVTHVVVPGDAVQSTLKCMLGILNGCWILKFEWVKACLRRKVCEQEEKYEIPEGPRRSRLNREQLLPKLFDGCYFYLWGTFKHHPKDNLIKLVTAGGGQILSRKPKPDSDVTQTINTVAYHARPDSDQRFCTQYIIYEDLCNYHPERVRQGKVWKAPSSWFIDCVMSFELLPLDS

Question: How did the “effect of a mutation on the interaction” value turn out when L12H was run?
Answer: disrupting interaction strength

Variants of: B1
Details: with prp31_human PRPF31, Q8WWY3
prp31_human PRPF31, Q8WWY3, sequence (Q8WWY3 whole entry): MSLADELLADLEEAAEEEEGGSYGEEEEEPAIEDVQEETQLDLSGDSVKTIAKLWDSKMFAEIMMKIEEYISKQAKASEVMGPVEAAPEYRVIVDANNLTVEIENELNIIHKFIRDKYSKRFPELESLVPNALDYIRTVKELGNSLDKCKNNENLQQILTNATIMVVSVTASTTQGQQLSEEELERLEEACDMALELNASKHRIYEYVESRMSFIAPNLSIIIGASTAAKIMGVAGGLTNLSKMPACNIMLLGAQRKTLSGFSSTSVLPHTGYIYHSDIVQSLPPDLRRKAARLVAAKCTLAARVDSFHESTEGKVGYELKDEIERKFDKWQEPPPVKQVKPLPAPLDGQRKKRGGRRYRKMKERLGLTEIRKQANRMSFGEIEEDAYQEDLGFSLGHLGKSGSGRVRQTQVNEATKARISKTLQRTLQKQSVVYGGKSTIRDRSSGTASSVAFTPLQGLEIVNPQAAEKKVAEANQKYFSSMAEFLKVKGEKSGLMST

Question: Which “effect of a mutation on the interaction” value does the source give for L12H here?
Answer: disrupting interaction strength

Variants of: B1
Details: with prc1_human PRC1, O43663

Question: How did the “effect of a mutation on the interaction” value turn out when L12H was run?
Answer: disrupting interaction strength

Variants of: B1
Details: with zbt24_human ZBTB24, O43167

Question: L12H was tested. Which “effect of a mutation on the interaction” value did it give?
Answer: disrupting interaction strength

Variants of: B1
Details: with vatg1_human ATP6V1G1, O75348
vatg1_human ATP6V1G1, O75348, sequence (O75348 whole entry): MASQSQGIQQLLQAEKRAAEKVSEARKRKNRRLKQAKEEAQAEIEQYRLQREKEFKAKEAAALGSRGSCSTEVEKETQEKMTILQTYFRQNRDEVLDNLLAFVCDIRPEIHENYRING

Question: Which “effect of a mutation on the interaction” value does the source give for L12H here?
Answer: disrupting interaction strength

Variants of: B1
Details: with exoc7_human EXOC7, Q9UPT5
exoc7_human EXOC7, Q9UPT5, sequence (Q9UPT5 whole entry): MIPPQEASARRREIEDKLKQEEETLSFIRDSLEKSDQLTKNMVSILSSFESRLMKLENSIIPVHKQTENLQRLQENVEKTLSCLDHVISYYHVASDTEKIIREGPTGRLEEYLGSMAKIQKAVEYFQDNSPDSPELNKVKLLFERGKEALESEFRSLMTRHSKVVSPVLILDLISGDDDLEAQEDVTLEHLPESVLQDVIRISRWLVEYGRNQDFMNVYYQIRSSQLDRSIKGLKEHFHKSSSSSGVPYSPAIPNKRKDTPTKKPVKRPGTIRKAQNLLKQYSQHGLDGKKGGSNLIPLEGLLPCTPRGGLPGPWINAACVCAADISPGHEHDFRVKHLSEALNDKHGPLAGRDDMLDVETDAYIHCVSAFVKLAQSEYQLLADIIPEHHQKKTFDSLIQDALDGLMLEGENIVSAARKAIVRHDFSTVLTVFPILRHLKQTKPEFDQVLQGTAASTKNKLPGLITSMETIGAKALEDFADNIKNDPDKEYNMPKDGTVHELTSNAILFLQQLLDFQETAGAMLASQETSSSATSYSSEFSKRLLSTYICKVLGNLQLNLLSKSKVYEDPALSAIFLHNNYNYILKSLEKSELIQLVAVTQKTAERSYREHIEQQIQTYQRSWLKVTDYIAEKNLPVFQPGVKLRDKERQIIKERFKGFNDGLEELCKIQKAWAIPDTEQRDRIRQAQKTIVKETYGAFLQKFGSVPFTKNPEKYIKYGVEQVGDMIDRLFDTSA

Question: With L12H as the variant, how does the “effect of a mutation on the interaction” value read?
Answer: disrupting interaction strength

Variants of: B1
Details: with tha10_human THAP10, Q9P2Z0

Question: With L12H as the variant, how does the “effect of a mutation on the interaction” value read?
Answer: disrupting interaction strength

Variants of: B1
Details: with zn250_human ZNF250, P15622

Question: Which “effect of a mutation on the interaction” value does the source give for L12H here?
Answer: disrupting interaction strength

Variants of: B1
Details: with smrd1_human SMARCD1, Q96GM5

Question: With L12H as the variant, how does the “effect of a mutation on the interaction” value read?
Answer: disrupting interaction strength

Variants of: B1
Details: with mmta2_human MMTAG2, Q9BU76
mmta2_human MMTAG2, Q9BU76, sequence (Q9BU76 whole entry): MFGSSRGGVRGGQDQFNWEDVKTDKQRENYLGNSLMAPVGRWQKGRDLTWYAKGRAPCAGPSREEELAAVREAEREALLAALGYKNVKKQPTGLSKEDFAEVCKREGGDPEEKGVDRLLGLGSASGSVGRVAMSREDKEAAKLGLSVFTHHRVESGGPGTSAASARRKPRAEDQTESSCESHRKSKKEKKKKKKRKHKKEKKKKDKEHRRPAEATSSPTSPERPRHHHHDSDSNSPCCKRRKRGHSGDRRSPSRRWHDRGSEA

Question: L12H was tested. Which “effect of a mutation on the interaction” value did it give?
Answer: disrupting interaction strength

Variants of: B1
Details: with tnnt1_human TNNT1, P13805
tnnt1_human TNNT1, P13805, sequence (P13805 whole entry): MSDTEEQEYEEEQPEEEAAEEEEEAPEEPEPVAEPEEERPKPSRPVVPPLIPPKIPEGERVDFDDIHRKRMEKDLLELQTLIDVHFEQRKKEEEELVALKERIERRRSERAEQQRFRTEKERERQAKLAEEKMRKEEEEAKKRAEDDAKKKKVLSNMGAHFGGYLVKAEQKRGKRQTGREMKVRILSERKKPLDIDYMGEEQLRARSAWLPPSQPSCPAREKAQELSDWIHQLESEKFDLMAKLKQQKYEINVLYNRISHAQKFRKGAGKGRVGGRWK

Question: How did the “effect of a mutation on the interaction” value turn out when L12H was run?
Answer: disrupting interaction strength

Variants of: B1
Details: with aebp2_human AEBP2, Q6ZN18

Question: L12H was tested. Which “effect of a mutation on the interaction” value did it give?
Answer: with no effect

Variants of: B2
Details: with KRT15, P19012
Target sequence in this assay (P19012 whole entry): as the sequence (P19012 whole entry) above

Question: For S475L, which “effect of a mutation on the interaction” value is on record?
Answer: with no effect

Variants of: B2
Details: with nf2l2_human NFE2L2, Q16236

Question: S475L was tested. Which “effect of a mutation on the interaction” value did it give?
Answer: with no effect

Variants of: B2
Details: with mtus2_human MTUS2, Q5JR59
mtus2_human MTUS2, Q5JR59, sequence (Q5JR59 whole entry): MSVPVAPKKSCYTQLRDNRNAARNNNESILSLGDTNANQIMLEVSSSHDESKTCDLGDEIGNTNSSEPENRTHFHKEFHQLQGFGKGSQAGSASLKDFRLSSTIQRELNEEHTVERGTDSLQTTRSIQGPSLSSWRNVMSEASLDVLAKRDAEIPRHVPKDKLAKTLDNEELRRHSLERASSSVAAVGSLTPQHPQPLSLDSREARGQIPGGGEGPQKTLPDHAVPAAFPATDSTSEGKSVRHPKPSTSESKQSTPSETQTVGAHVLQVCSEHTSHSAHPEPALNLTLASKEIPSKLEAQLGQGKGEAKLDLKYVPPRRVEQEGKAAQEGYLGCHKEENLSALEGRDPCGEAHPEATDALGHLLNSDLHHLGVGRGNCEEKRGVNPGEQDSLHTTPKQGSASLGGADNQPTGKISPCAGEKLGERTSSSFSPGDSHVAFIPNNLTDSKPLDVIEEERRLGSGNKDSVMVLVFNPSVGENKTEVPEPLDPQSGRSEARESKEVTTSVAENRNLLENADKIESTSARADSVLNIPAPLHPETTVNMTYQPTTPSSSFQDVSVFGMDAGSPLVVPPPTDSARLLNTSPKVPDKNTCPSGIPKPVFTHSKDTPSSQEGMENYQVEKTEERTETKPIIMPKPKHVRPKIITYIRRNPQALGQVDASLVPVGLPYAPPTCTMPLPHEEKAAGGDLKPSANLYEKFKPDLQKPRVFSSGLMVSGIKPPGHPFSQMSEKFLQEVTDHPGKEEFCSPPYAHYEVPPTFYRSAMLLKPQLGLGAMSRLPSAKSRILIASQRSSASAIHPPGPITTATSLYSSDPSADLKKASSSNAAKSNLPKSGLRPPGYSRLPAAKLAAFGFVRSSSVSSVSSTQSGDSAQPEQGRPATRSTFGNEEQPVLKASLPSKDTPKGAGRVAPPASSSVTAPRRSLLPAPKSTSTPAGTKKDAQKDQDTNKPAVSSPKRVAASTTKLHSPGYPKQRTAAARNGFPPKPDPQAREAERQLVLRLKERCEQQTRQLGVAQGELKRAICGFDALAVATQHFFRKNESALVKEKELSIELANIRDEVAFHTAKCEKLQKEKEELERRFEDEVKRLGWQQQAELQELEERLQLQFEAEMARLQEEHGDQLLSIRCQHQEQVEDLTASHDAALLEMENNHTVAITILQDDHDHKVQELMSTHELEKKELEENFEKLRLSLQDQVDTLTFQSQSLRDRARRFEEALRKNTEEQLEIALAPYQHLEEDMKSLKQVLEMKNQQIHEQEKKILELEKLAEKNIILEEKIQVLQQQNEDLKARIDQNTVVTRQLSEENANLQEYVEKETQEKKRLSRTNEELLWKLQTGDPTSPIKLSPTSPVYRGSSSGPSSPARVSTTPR

Question: S475L was tested. Which “effect of a mutation on the interaction” value did it give?
Answer: with no effect

Variants of: B3
Details: with dtnb_human DTNB

Question: How did the “effect of a mutation on the interaction” value turn out when V91I was run?
Answer: with no effect

Variants of: B4
Details: with kctd9_human KCTD9, Q7L273

Question: With L715S as the variant, how does the “effect of a mutation on the interaction” value read?
Answer: disrupting interaction strength

Question: Which “effect of a mutation on the interaction” value does the source give for S703F here?
Answer: with no effect

Question: For R483Q, which “effect of a mutation on the interaction” value is on record?
Answer: disrupting interaction strength

Question: I646T was tested. Which “effect of a mutation on the interaction” value did it give?
Answer: disrupting interaction strength
